Source: patent US20250352661A1 (MYTHIC THERAPEUTICS, published 2025)
Numbering of substitutions follows the chain as printed. In names and notes the source's numbering stands.

T1: Human LRRC15 Protein, His Tag (Acro Biosystems) (human, UniProt Q8TF66 22-538, limits assumed)
T1 construct: not shown: His tag
T1 sequence (looked up): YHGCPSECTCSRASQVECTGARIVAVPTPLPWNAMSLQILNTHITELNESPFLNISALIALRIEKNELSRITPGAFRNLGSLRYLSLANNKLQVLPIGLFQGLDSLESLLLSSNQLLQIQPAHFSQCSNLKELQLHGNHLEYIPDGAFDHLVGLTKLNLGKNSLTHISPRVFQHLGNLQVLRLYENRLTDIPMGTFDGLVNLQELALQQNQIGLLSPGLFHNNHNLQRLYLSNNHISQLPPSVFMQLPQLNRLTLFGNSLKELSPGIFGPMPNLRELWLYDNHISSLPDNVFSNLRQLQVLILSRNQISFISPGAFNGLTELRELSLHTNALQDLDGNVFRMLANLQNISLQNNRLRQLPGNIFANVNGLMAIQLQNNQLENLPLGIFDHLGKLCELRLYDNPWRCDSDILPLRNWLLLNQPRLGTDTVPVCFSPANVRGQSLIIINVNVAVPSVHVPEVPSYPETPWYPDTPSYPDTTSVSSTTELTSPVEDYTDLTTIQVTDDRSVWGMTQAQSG

T2: Human LRRC15 Protein, His Tag (Acro Biosystems) (human, UniProt Q8TF66 22-538, limits assumed)
T2 sequence (looked up): T1 sequence (looked up)

B1: MYT9684 (antibody, V domains shown)
VH: EVQLVESGGGLVQPGGSLRLSCTASEFSFSSSHWICWVRQAPGKGLEWVGCIYAGSIGSTYYASWAKGRFTISRDTSKNTVYLQMNSLRAEDTAVYYCARAPNDIYNYYFNLWGQGTLVTVSS
VL: EIVMTQSPSTLSASVGDRVIITCQASENIYNYLAWYQQKPGKAPKLLIYYASTLASGVPSRFSGSGSGAEFTLTISSLQPDDFATYYCQSGYVSKSSTFGQGTKLTVL
notes: also called hu29F1 VH G26E
B2: MYT9686 (antibody, V domains shown)
VH: B1 VH with E26G, S28E
VL: B1 VL
notes: also called hu29F1 VH S28E
B3: MYT9685 (antibody, V domains shown)
VH: B1 VH with E26G, F27E
VL: B1 VL
notes: also called hu29F1 VH F27E
B4: MYT9689 (antibody, V domains shown)
VH: B1 VH with E26G, S31E
VL: B1 VL
notes: also called hu29F1 VH S31E
B5: MYT9688 (antibody, V domains shown)
VH: B1 VH with E26G, S30E
VL: B1 VL
notes: also called hu29F1 VH S30E
B6: MYT9690 (antibody, V domains shown)
VH: B1 VH with E26G, S32E
VL: B1 VL
notes: also called hu29F1 VH S32E
B7: MYT6085 (antibody, V domains shown)
VH: QEQLEESGGDLVKPGASLTLTCTASGLDFRHTNYICWVRQAPGKGLEWIGCIYIADVVHYYASWAKGRFTFSKTSSTTVTLQMTSLTAADTATYFCARGADGGFVYGMDLWGPGTLVTVSS
VL: DVVMTQTPASVSEPVGGTVTIKCQASQSIGNYLSWYQQKPGQRPKRLIYSASTLPSGVPSRFKGAGSGTEFTLTISDLESADAATYYCQNNYWLAGYGHPFGGGTEVVVK
notes: chimeric rabbit 15G7 variant (rabbit variable domains, human constant regions); also called 15G7 VH R31H
B8: MYT6108 (antibody, V domains shown)
VH: B7 VH with H31R, A97H
VL: B7 VL
notes: chimeric rabbit 15G7 variant (rabbit variable domains, human constant regions); also called 15G7 VH A97H
B9: MYT6110 (antibody, V domains shown)
VH: B7 VH with H31R, G99H
VL: B7 VL
notes: chimeric rabbit 15G7 variant (rabbit variable domains, human constant regions); also called 15G7 VH G99H
B10: MYT6089 (antibody, V domains shown)
VH: B7 VH with H31R, I35H
VL: B7 VL
notes: chimeric rabbit 15G7 variant (rabbit variable domains, human constant regions); also called 15G7 VH I35H
B11: MYT6086 (antibody, V domains shown)
VH: B7 VH with H31R, T32H
VL: B7 VL
notes: chimeric rabbit 15G7 variant (rabbit variable domains, human constant regions); also called 15G7 VH T32H
B12: MYT6094 (antibody, V domains shown)
VH: B7 VH with H31R, I54H
VL: B7 VL
notes: chimeric rabbit 15G7 variant (rabbit variable domains, human constant regions); also called 15G7 VH I54H
B13: MYT6109 (antibody, V domains shown)
VH: B7 VH with H31R, R98H
VL: B7 VL
notes: chimeric rabbit 15G7 variant (rabbit variable domains, human constant regions); also called 15G7 VH R98H
B14: MYT6087 (antibody, V domains shown)
VH: B7 VH with H31R, N33H
VL: B7 VL
notes: chimeric rabbit 15G7 variant (rabbit variable domains, human constant regions); also called 15G7 VH N33H
B15: MYT6100 (antibody, V domains shown)
VH: B7 VH with H31R, Y60H
VL: B7 VL
notes: chimeric rabbit 15G7 variant (rabbit variable domains, human constant regions); also called 15G7 VH Y60H
B16: MYT6101 (antibody, V domains shown)
VH: B7 VH with H31R, Y61H
VL: B7 VL
notes: chimeric rabbit 15G7 variant (rabbit variable domains, human constant regions); also called 15G7 VH Y61H
B17: MYT6105 (antibody, V domains shown)
VH: B7 VH with H31R, A65H
VL: B7 VL
notes: chimeric rabbit 15G7 variant (rabbit variable domains, human constant regions); also called 15G7 VH A65H
B18: MYT6099 (antibody, V domains shown)
VH: B7 VH with H31R, H59A
VL: B7 VL
notes: chimeric rabbit 15G7 variant (rabbit variable domains, human constant regions); also called 15G7 VH H59A
B19: MYT6106 (antibody, V domains shown)
VH: B7 VH with H31R, K66H
VL: B7 VL
notes: chimeric rabbit 15G7 variant (rabbit variable domains, human constant regions); also called 15G7 VH K66H
B20: MYT6095 (antibody, V domains shown)
VH: B7 VH with H31R, A55H
VL: B7 VL
notes: chimeric rabbit 15G7 variant (rabbit variable domains, human constant regions); also called 15G7 VH A55H
B21: MYT6098 (antibody, V domains shown)
VH: B7 VH with H31R, V58H
VL: B7 VL
notes: chimeric rabbit 15G7 variant (rabbit variable domains, human constant regions); also called 15G7 VH V58H
B22: MYT6093 (antibody, V domains shown)
VH: B7 VH with H31R, Y53H
VL: B7 VL
notes: chimeric rabbit 15G7 variant (rabbit variable domains, human constant regions); also called 15G7 VH Y53H
B23: MYT6107 (antibody, V domains shown)
VH: B7 VH with H31R, G67H
VL: B7 VL
notes: chimeric rabbit 15G7 variant (rabbit variable domains, human constant regions); also called 15G7 VH G67H
B24: MYT6096 (antibody, V domains shown)
VH: B7 VH with H31R, D56H
VL: B7 VL
notes: chimeric rabbit 15G7 variant (rabbit variable domains, human constant regions); also called 15G7 VH D56H
B25: MYT6103 (antibody, V domains shown)
VH: B7 VH with H31R, S63H
VL: B7 VL
notes: chimeric rabbit 15G7 variant (rabbit variable domains, human constant regions); also called 15G7 VH S63H
B26: MYT6097 (antibody, V domains shown)
VH: B7 VH with H31R, V57H
VL: B7 VL
notes: chimeric rabbit 15G7 variant (rabbit variable domains, human constant regions); also called 15G7 VH V57H
B27: MYT6088 (antibody, V domains shown)
VH: B7 VH with H31R, Y34H
VL: B7 VL
notes: chimeric rabbit 15G7 variant (rabbit variable domains, human constant regions); also called 15G7 VH Y34H
B28: MYT6092 (antibody, V domains shown)
VH: B7 VH with H31R, I52H
VL: B7 VL
notes: chimeric rabbit 15G7 variant (rabbit variable domains, human constant regions); also called 15G7 VH I52H

target: T1, Human LRRC15 Protein, His Tag (Acro …); test: BLI; dissociation pH 7.4 black, pH 5.4 grey [1/2); D00025 FIG. 6B (1/2]
Experimental: Desirable mutations were transferred to a humanized framework (humanized, MYT 8387-8411). After allowing for four days of protein expression, cell culture supernatants were collected, quantified by SDS-PAGE analysis, and the pH dependence of the variant was evaluated using biolayer interferometry (BLI) on an Octet RED 96e instrument. Briefly, cell culture supernatants were diluted based on qualitative expression level of the variant determined by visual examination of SDS-PAGE gels, 5 μL of cell culture supernatant was diluted into 195 μL of 1×PBST, pH 7.4 for high expressors, 25 μL of cell culture supernatant was diluted into 175 μL of 1×PBST, pH 7.4 for medium expressors and 100 μL of cell culture supernatant was diluted into 100 μL of 1×PBST, pH 7.4 for low expressors for loading onto the sensor tips. The resulting diluted supernatants were then captured on an anti-human Fc sensor (Forte Bio). A baseline was established using 1×PBST (50 mM Potassium Phosphate Buffer+150 mM NaCl+0.05% Tween 20) pH 7.4, and the […] was associated with 50 nM of LRRC15 (Human LRRC15 Protein, His Tag, Acro Biosystems) in 1×PBST pH 7.4 for 120 sec to generate an association curve. In the dissociation phase, the antibody-antigen complex on the sensor was exposed to 1×PBST pH 7.4 or pH 5.4, for 300 sec. Association and dissociation phase curves were examined for the starting ABPC antibody (with no substitutions) and each corresponding antibody variant at pH 5.4 and pH 7.4 to inform on two criteria: a) enhanced dissociation (i.e., higher koff values) at pH 5.4 due to histidine substitution compared to the starting ABPC, (with no substitutions), and b) reduced dissociation at pH 7.4 (i.e., lower koff values) compared to pH 5.4 in the antibody variant itself and with the starting ABPC (with no substitutions).
The methods of Examples 9-10 were applied to RabMAb clone 29F1 (rabbit VH SEQ ID NO: 572 and VL SEQ ID NO: 578; and humanized VH SEQ ID NO: 576 and VL SEQ ID NO: 582).

| binding result | Binder |
| --- | --- |
| binds | B1 |
| binds | B2 |
| binds | B3 |
| binds | B4 |
| binds | B5 |
| binds | B6 |

target: T2, Human LRRC15 Protein, His Tag (Acro …); test: BLI; dissociation pH 7.4 black, pH 5.4 grey [1/2); D00006 FIG. 1E (1/2]
From the text: For each individual plot, antigen binding proteins were captured on anti-human Fc biosensors and associated with LRRC15 at pH 7.4. Dissociation was at pH 7.4 (black) or pH 5.4 (grey). Major X-axis ticks=100 seconds, with left dashed vertical line=0 seconds. Major Y-axis ticks=0.5 nm and octet plots are shown MYT5712 and MYT6080-MYT6121.
Multiple LRRC15-binding monoclonal antibodies have been described in the literature and can be used as a template for engineering pH-dependent binding. We selected discovery RabMAb clone 15G7 (rabbit VH SEQ ID NO: 378, rabbit VL SEQ ID NO: 451; humanized VH SEQ ID NO: 382, humanized VL SEQ ID NO: 455) as a LRRC15-binding monoclonal antibody for pH-engineering via histidine scanning. […] To generate pH-dependent sequence variants, individual amino acid residues within the heavy chain CDRs were systematically substituted with a histidine (or alanine if H was already present in a given position; e.g., MYT6099), one at a time (rabbit, MYT6080-6121). Desirable mutations were transferred to a humanized framework (humanized, MYT 8387-8411). After allowing for four days of protein expression, cell culture supernatants were collected, quantified by SDS-PAGE analysis, and the pH dependence of the variant was evaluated using biolayer interferometry (BLI) on an Octet RED 96e instrument. Briefly, cell culture supernatants were diluted based on qualitative expression level of the variant determined by visual examination of SDS-PAGE gels, 5 μL of cell culture supernatant was diluted into 195 μL of 1×PBST, pH 7.4 for high expressors, 25 μL of cell culture supernatant was diluted into 175 μL of 1×PBST, pH 7.4 for medium expressors and 100 μL of cell culture supernatant was diluted into 100 μL of 1×PBST, pH 7.4 for low expressors for loading onto the sensor tips.

| binding result | Binder |
| --- | --- |
| binds | B7 |
| binds | B8 |
| binds | B9 |
| binds | B10 |
| binds | B11 |
| binds | B12 |
| binds | B13 |
| binds | B14 |
| binds | B15 |
| binds | B16 |
| binds | B17 |
| binds | B18 |
| binds | B19 |
| binds | B20 |
| binds | B21 |
| binds | B22 |
| binds | B23 |
| binds | B24 |
| binds | B25 |
| binds | B26 |
| binds | B27 |
| binds | B28 |
